Where two headings read alike, the source gives them in different places.
B1: plasma factor X (protein)
chain 1: ANSFLEEMKKGHLERECMEETCSYEEAREVFEDSDKTNEFWNKYKDGDQCETSPCQNQGKCKDGLGEYTCTCLEGFEGKNCELFTRKLCSLDNGDCDQFCHEEQNSVVCSCARGYTLADNGKACIPTGPYPCGKQTLER
chain 2: SVAQATSSSGEAPDSITWKPYDAADLDPTENPFDLLDFNQTQPERGDNNLTRIVGGQECKDGECPWQALLINEENEGFCGGTILSEFYILTAAHCLYQAKRFKVRVGDRNTEQEEGGEAVHEVEVVIKHNRFTKETYDFDIAVLRLKTPITFRMNVAPACLPERDWAESTLMTQKTGIVSGFGRTHEKGRQSTRLKMLEVPYVDRNSCKLSSSFIITQNMFCAGYDTKQEDACQGDSGGPHVTRFKDTYFVTGIVSWGEGCARKGKYGIYTKVTAFLKWIDRSMKTRGLPKAKSHAPEVITSSPLK

Experiments:
thrombin [1] = test system: thrombin
thrombin [2] = target: thrombin; remark: listed apart in the source

| Molecule | appearance of FXa after incubation with thrombin (Pefachrome FXa8595 hydrolysis at 405 nm) (thrombin [1]) | appearance of FXa after incubation with thrombin (Pefachrome FXa8595 hydrolysis at 405 nm) (thrombin [2]) |
| --- | --- | --- |
| FX-WT (human factor X from an optimized nucleotide sequence, with C-terminal HPC4 tag) | the plasma and WT FXs being negative since they do not have a thrombin recognition site |  |
| B1 |  | the plasma and WT FXs being negative since they do not have a thrombin recognition site |

Reference: US20160145598
